Changes are numbered by the printed parent chain.

The chains are these.
B1: 75110_14N19A (antibody, V domains shown)
VH: QVQLQESGPGLVKPSETLSLTCTVSGGSISRYYWSWIRQPAGKGLEWIGRICTSENPNYNPALKSRVTMSVDTSKNQFSLKLSSVTAADTAVYYCARELERLNYYGMDVWGQGTTVTVSS
VL: DIQMTQFPSSLSASVGDRVTITCQASQDISNYLNWYQQKPGKAPKLLIYDASNLESGVPSRFSGRGSGTDFTFTISSLQPEDFATFYCQQYDTLPITFGQGTRLEIK
notes: Tested as antibody purified from AlivaMab Mouse Kappa hybridoma (human V regions, kappa light chain, mouse Fc captured by anti-mouse Fc sensors)
B2: 75110_14I16A (antibody, V domains shown)
VH: QVQLQESGPGLVKPSETLSLTCTVSNGSISSYYWSWIRQSAGKGLEWIGRIYTSGSTNYNPSLKSRVTMLVDTSKNQFSLKLSSVTAADTAVYYCARDREDYYYYGMDVWGQGTTVTVSS
VL: DIQMTQSPSSLSASVGDRVTITCQASHDISNYLNWYQQKPGKAPKLLLYYASNLETGVPSRFSGSGSGTDFTFTITSLQPEDIGTYSCQQYDNLPLTFGGGTKVEIK
notes: Tested as antibody purified from AlivaMab Mouse Kappa hybridoma (human V regions, kappa light chain, mouse Fc captured by anti-mouse Fc sensors); also called 75110_14116A
B3: 75110_14G10A (antibody, V domains shown)
VH: EVQLVESGGGLVKPGGSLRLSCAASGFTFSSYSMNWVRQAPGKGLEWVSFISSSSSYIYYADSVKGRFTISRDNAKNSLYLQMNSLRAEDTAVYYCARERGDDYGDYEGAFDIWGQGTMVTVSS
VL: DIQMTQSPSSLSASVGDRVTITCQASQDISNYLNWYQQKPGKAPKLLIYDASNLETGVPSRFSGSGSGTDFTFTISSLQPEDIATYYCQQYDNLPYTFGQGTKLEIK
notes: as for B1
B4: 75110_13P21A (antibody, V domains shown)
VH: QVQLQQWGAGLLKPSETLSLTCAVSGGSFSGYYWSWIRQPPGKGLEWIGEINHSGSTNCNPSLKSRVTISVDTSNNQFSLKLSSVTAADTAVYYCARVLNYFDYWGQGTLVTVSS
VL: DIQMTQSPSSVSASVGDRVTITCRASPDIANWLAWYQQKPGKAPELLIYAASSLQSGVPSRFSGSGSGTDFTLTISSLQPEDFATYFCQQANSFPLTFGGGTKVESK
notes: as for B1
B5: 75110_13P22A (antibody, V domains shown)
VH: B4 VH with V24A, S25Y, P40S, H53Q, S56N, C59Y, V71A, N75K, Y101W, T109I
VL: DIQMTQSPSSVSASVGDRVTITCRASQGISDWLAWYQQKSGKAPDLLIFAASSLQSGVPSRFSGSGSGTDFTLTISSLQPEDFATYYCQQANSFPYTFGQGTKLEIK
notes: as for B1
B6: 75110_04F22A (antibody, V domains shown)
VH: EVQLVESGGGLVQPGGSLRLSCAASGFTFSSYDIHWVRQATGKGLEWVSTIGTAGDTYYPGSVKGRFTISRENAKNSLYLQMNSLRAGDTAVYYCARGGYYYYGMDVWGQGTTVTVSS
VL: EIVLTQSPGTLSLSPGERATLSCRASQSVYSSYLAWYQQKPGQAPRLLIYGASSRATGIPDRFSGSGSGTDFTLTISRLEPEDFAVYYCQQFGTSPFTFGPGTKVDIK
notes: Tested as antibody purified from AlivaMab Mouse hybridoma supernatant (captured by anti-mouse IgG Fc)
B7: 75110_01G11A (antibody, V domains shown)
VH: B6 VH with I34M, K75R, Y79F, Y100D
VL: B6 VL with S14F, S28N, V29T, S54N, F92H
notes: as for B6
B8: 75110_01E08A (antibody, V domains shown)
VH: B6 VH with S30N, S31N, I34M, G61A, S70Y, Y100D
VL: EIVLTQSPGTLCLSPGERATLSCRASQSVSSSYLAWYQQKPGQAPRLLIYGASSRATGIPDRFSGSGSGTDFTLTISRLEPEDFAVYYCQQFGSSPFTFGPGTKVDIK
notes: as for B6
B9: 75110_01J17A (antibody, V domains shown)
VH: B6 VH with I34M, A40G, G55D, K75E, Y100D
VL: B6 VL with T5A, S31I, S77T, T94S, I107F
notes: as for B6
B10: 75110_01D24A (antibody, V domains shown)
VH: B4 VH with S25Y, C59Y, N75E, S83N, V98L, L99V, Y101W, Y104P
VL: B5 VL with D1E, G28D, D31N, S40P, D45N, S56T, E81D, T97S, K103N, E105G
notes: as for B6
B11: 75110_03L12A (antibody, V domains shown)
VH: B4 VH with S25Y, C59Y, N75E, K81T, S83I, A96V, V98L, L99I, Y101W, Y104P
VL: B5 VL with G28D, D31N, S40P, D45K, E81D, K103N, E105G
notes: as for B6
B12: 75110_01A06A (antibody, V domains shown)
VH: EVQLVESGGGLVQPGGSLRLSCAASGFTFSSYWMSWVRQAPGKGLEWVANINEDGNEKYYVDSVKGRLTISRDNAKNSLYLQMNSLRAEDTAVYFCAREGGQWLSLDYWGQGALVTVSS
VL: B5 VL with T20S, D31S, S40P, D45K, L46I, F49Y, A50G, Y96W, L104V
notes: as for B6
B13: 75110_01C18A (antibody, V domains shown)
VH: EVQLVESGGGLIQPGGSLRLSCAASGFTVSSNYMNWVRQAPGKGLEWVSVIYAGDNTYSADSVKGRFTISRDNSNNTLCLQMNSLRAEDTAVYYCAREGGTTGAFDIWGQGTMVTVSS
VL: B5 VL with S30N, D31S, S40P, D45K, F49Y, A91G
notes: as for B6
B14: 75110_04K10A (antibody, V domains shown)
VH: B12 VH with E53Q, N56S, L68F, M83L, V93M, F95Y, A113T
VL: DIQMTQSPSSVSASVGDRVTITCRASQGISSWLAWYQQKPGKAPKVLIYGVSSFQSGVPSRFSGSGSGTDFILTISSLQPEDFATYYCQQANSFPWTFGQGTKVEIK
notes: as for B6
B15: 75110_03D16A (antibody, V domains shown)
VH: B12 VH with E53Q, N56G, L68F, F95Y, A97V, S105A, A113T
VL: B14 VL with A34T, V46F, G50A, V51A, F54L, S67F, I72T
notes: as for B6
B16: 75110_02N15A (antibody, V domains shown)
VH: B12 VH with L68F, Y80F, S105A, Y108H
VL: B14 VL with V46F, Y49S, V51A, F54L, I72T, I106F
notes: as for B6

For one experiment, the target named is T1, Recombinant human CD4 (R&D Systems, Cat. 10327-CD) (human, UniProt P01730 26-390, limits assumed).
T1 construct: Bought protein; also called huCD4
Briefly: BLI (Octet Red384), purified antibody on anti-mouse Fc sensors, human CD4 100/50/25 nM, global 1:1 fit.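 Also: antibodies loaded at 10 µg/mL, curves fitted across association and dissociation phases, with an unrelated mouse-derived antibody serving as internal reference control.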 On the technique in general: BLI is a label-free optical method that tracks binding on a fibre tip over time.
In the case of B1, the Kd (as a rule, the concentration at which binding is half-saturated) came out at 11 nM; the Response was determined as 0.17; the koff (in general, the first-order rate constant of dissociation) came out at 0.0014 s⁻¹; the kon – broadly, a measure of how fast the partners come together – is 130000 M⁻¹ s⁻¹.

B2: the dissociation constant Kd amounted to 10 nM, the Response is 0.14, the koff was found to be 0.0017 s⁻¹ and the kon came out at 160000 M⁻¹ s⁻¹.

Consider B3, for which the Kd turned out to be 0.38 nM, the Response stood at 0.19, the dissociation rate constant (koff) is 0.00019 s⁻¹ and the kon amounted to 500000 M⁻¹ s⁻¹.

Consider B4, for which the Kd is 3 nM, the Response came to 0.17, the off-rate (koff) was 0.00029 s⁻¹ and the kon came out at 95000 M⁻¹ s⁻¹.

Take B5: the Kd is 14 nM, the Response was determined as 0.16, the off-rate constant (koff) amounted to 0.0012 s⁻¹ and the kon amounted to 86000 M⁻¹ s⁻¹.

For another experiment, the target named is T2, Recombinant human CD4 (R&D Systems, Cat. 10327-CD) (human, UniProt P01730 26-390, limits assumed).
T2 construct: Soluble analyte in the Octet assay
Briefly: BLI Octet, mAb on anti-mouse Fc sensor, CD4 100/50/25 nM, 1:1 global fit.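 Also: antibodies loaded at 10 µg/mL, an unrelated mouse-derived antibody served as internal reference control, association and dissociation phases fitted after Savitzky-Golay smoothing.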
With B6, the Kd was found to be 5.9 nM, the Response worked out at 0.05, the off-rate (koff) came to 0.00021 s⁻¹ and the on-rate constant (kon) amounted to 35000 M⁻¹ s⁻¹.

Turning to B7, the Kd came to 1.7 nM, the Response turned out to be 0.11, the koff is 7.2e-05 s⁻¹ and the on-rate constant (kon) turned out to be 42000 M⁻¹ s⁻¹.

Regarding B8, the Kd came out at 0.26 nM, the Response is 0.14, the koff was 2e-05 s⁻¹ and the kon turned out to be 77000 M⁻¹ s⁻¹.

Regarding B9, the equilibrium dissociation constant (Kd) turned out to be 2.8 nM, the Response is 0.09, the koff came to 0.00012 s⁻¹ and the kon was found to be 43000 M⁻¹ s⁻¹.

As for B10, the dissociation constant Kd turned out to be 13 nM, the Response was 0.27, the dissociation rate constant (koff) is 0.0017 s⁻¹ and the kon came to 130000 M⁻¹ s⁻¹.

On to B11, for which the dissociation constant Kd was found to be 5.5 nM, the Response was 0.22, the koff stood at 0.00076 s⁻¹ and the kon is 140000 M⁻¹ s⁻¹.

For the molecule B12, the equilibrium dissociation constant (Kd) was 14 nM, the Response came to 0.36, the koff was 0.0014 s⁻¹ and the on-rate (kon) was 100000 M⁻¹ s⁻¹.

Regarding B13, the dissociation constant Kd was 24 nM, the Response was 0.13, the koff was determined as 0.0047 s⁻¹ and the kon is 200000 M⁻¹ s⁻¹.

Take B14: the equilibrium dissociation constant (Kd) came to 110 nM, the Response came to 0.1, the koff worked out at 0.0042 s⁻¹ and the on-rate (kon) came to 39000 M⁻¹ s⁻¹.

As to B15, the Kd was 10 nM, the Response worked out at 0.05, the dissociation rate constant (koff) came out at 0.0008 s⁻¹ and the kon stood at 78000 M⁻¹ s⁻¹.

With B16, the Kd amounted to 11 nM, the Response worked out at 0.25, the off-rate constant (koff) stood at 0.0017 s⁻¹ and the association rate constant (kon) was found to be 160000 M⁻¹ s⁻¹.

The record behind these values is patent US20220112288A1 (published 2022).
